Drawing on patent US20240034815A1 (Xencor, published 2024), this text covers Kd for seven molecules.

Test [1] deals with T1, His-tagged human GPC3 (human, UniProt P51654 25-559, limits assumed).
T1 construct: Captured on HIS1K sensors in the Octet assay; also called human GPC3 antigen; Glypican 3; not shown: His tag
In words: Octet (BLI); His-tagged GPC3 captured on HIS1K sensors, bsAb in solution. The method, then: (§1) After humanization, GPC3 binding arms were engineered with single point mutations in the variable light domain with the aim to create a ladder of GPC3 binding affinity, illustrative sequences for which are depicted in FIG. 13. 73 variable light domain variants were engineered and paired with GPC3-A H1.1 (see Example 3C for description of GPC3-A H1.1 variant). The GPC3-A variants were engineered in the 1+1 Fab-scFv-Fc bsAb format and binding for GPC3 antigen was measured using Octet, a BioLayer Interferometry (BLI)-based method. Experimental steps for Octet generally include the following: Immobilization (capture of ligand to a biosensor); Association (dipping of ligand-coated biosensors into wells containing the analyte); and Dissociation (returning of biosensors to well containing buffer). For ease of clinical development (e.g. by investigating the therapeutics in model animals), it is useful for the binding domains to be cross-reactive for cynomolgus antigen; therefore, binding to both human and cynomolgus GPC3 antigen were investigated. His-tagged human and cynomolgus GPC3 were captured on HIS1K sensors then dipped into multiple concentrations of the bispecific antibodies. The resulting dissociation constant (KD) are depicted in FIG. 23.
On the technique in general: Biolayer interferometry detects binding as a change in optical thickness at a sensor tip.

Test [2] has as its target T1, His-tagged human GPC3. As to the kind of experiment: Octet (BLI), His-tagged GPC3 captured on HIS1K sensors, bsAb as analyte. As to the method:
as §1

The target of test [3] is T2, His-tagged cynomolgus GPC3 (cynomolgus, UniProt A0A2K5VK50 24-558).
T2 construct: Captured on HIS1K sensors in the Octet assay; also called cynomolgus GPC3 antigen; cyno GPC3; not shown: His tag
Described as above. The method, then: as §1

The target of test [4] is T1, His-tagged human GPC3. As to the kind of experiment: binding assay not named for this figure; Octet (BLI) is the method of Example 2B. The method, then:
as §1

The target of test [5] is T2, His-tagged cynomolgus GPC3. The test is described as above. As to the method: as §1

T1 sequence (P51654 25-559 limits assumed): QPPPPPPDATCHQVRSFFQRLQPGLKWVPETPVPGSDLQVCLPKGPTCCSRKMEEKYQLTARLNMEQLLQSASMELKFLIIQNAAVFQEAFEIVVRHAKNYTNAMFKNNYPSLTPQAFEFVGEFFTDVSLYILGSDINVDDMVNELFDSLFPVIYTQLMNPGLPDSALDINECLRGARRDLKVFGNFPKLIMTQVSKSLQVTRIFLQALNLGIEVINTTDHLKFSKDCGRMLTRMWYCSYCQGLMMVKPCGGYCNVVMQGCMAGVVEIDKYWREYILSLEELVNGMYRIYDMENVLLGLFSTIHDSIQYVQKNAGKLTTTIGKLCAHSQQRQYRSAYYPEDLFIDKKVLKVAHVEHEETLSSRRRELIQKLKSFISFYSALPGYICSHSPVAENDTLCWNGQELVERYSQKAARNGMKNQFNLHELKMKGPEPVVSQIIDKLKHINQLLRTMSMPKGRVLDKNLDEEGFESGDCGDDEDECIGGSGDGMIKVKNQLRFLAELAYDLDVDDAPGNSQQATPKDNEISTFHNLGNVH

B1: XENP36941 (GPC3-A H1.1_L1.29 formatted as 1+1 Fab-scFv-Fc with CD3 High-Int #1 scFv) (bispecific antibody)
heavy: QVQLVQSGAEVKKPGASVKVSCKASGYTFTDYEMHWVRQAPGQGLEWMGALEPKTGDTAYSQKFQGRVTMTADKSISTAYMELSRLRSDDTAVYYCTRFYSYTYWGQGTLVTVSSASTKGPSVFPLAPSSKSTSGGTAALGCLVKDYFPEPVTVSWNSGALTSGVHTFPAVLQSSGLYSLSSVVTVPSSSLGTQTYICNVNHKPSDTKVDKKVEPKSCDKTHTCPPCPAPPVAGPSVFLFPPKPKDTLMISRTPEVTCVVVDVKHEDPEVKFNWYVDGVEVHNAKTKPREEEYNSTYRVVSVLTVLHQDWLNGKEYKCKVSNKALPAPIEKTISKAKGQPREPQVYTLPPSREEMTKNQVSLTCDVSGFYPSDIAVEWESDGQPENNYKTTPPVLDSDGSFFLYSKLTVDKSRWEQGDVFSCSVMHEALHNHYTQKSLSLSPGK
scFv-Fc: not shown
light: DVVMTQSPLSLPVTLGQPASISCRSSQSLVHSNGNTYLHWYQQRPGQSPRLLIYQVSNRFSGVPDRFSGSGSGTDFTLKISRVEAEDVGVYFCSQNTHVPPTFGSGTKLEIKRTVAAPSVFIFPPSDEQLKSGTASVVCLLNNFYPREAKVQWKVDNALQSGNSQESVTEQDSKDSTYSLSSTLTLSKADYEKHKVYACEVTHQGLSSPVTKSFNRGEC
notes: 1+1 Fab-scFv-Fc, human IgG1 heterodimeric backbone; treated as one molecule; also called [GPC3]H1.1_L1.29
As a reminder, the Kd is a measure of binding affinity in units of concentration. Lower therefore signals higher affinity. The molecule B1 had a Kd with His-tagged human GPC3 [1] of 70 nM.

B2: XENP21971_GPC3-A_H1_L1 (bispecific antibody)
heavy: QVQLVQSGAEVKKPGASVKVSCKASGYTFTDYEMHWVRQAPGQGLEWMGALDPKTGDTAYSQKFQGRVTMTADKSISTAYMELSRLRSDDTAVYYCTRFYSYTYWGQGTLVTVSSASTKGPSVFPLAPSSKSTSGGTAALGCLVKDYFPEPVTVSWNSGALTSGVHTFPAVLQSSGLYSLSSVVTVPSSSLGTQTYICNVNHKPSDTKVDKKVEPKSCDKTHTCPPCPAPPVAGPSVFLFPPKPKDTLMISRTPEVTCVVVDVKHEDPEVKFNWYVDGVEVHNAKTKPREEEYNSTYRVVSVLTVLHQDWLNGKEYKCKVSNKALPAPIEKTISKAKGQPREPQVYTLPPSREEMTKNQVSLTCDVSGFYPSDIAVEWESDGQPENNYKTTPPVLDSDGSFFLYSKLTVDKSRWEQGDVFSCSVMHEALHNHYTQKSLSLSPGK
scFv-Fc: not shown
light: DVVMTQSPLSLPVTLGQPASISCRSSQSLVHSNGNTYLHWYQQRPGQSPRLLIYKVSNRFSGVPDRFSGSGSGTDFTLKISRVEAEDVGVYFCSQNTHVPPTFGSGTKLEIKRTVAAPSVFIFPPSDEQLKSGTASVVCLLNNFYPREAKVQWKVDNALQSGNSQESVTEQDSKDSTYSLSSTLTLSKADYEKHKVYACEVTHQGLSSPVTKSFNRGEC
notes: the sheet prints H1_L1; copies: 1 + 1 + 1
As for B2, the Kd (with His-tagged human GPC3 [2]; in test [3]) was 4 nM in each case.

B3: XENP34365_GPC3-A_H1.1__L1.16 (bispecific antibody)
heavy: QVQLVQSGAEVKKPGASVKVSCKASGYTFTDYEMHWVRQAPGQGLEWMGALEPKTGDTAYSQKFQGRVTMTADKSISTAYMELSRLRSDDTAVYYCTRFYSYTYWGQGTLVTVSSASTKGPSVFPLAPSSKSTSGGTAALGCLVKDYFPEPVTVSWNSGALTSGVHTFPAVLQSSGLYSLSSVVTVPSSSLGTQTYICNVNHKPSDTKVDKKVEPKSCDKTHTCPPCPAPPVAGPSVFLFPPKPKDTLMISRTPEVTCVVVDVKHEDPEVKFNWYVDGVEVHNAKTKPREEEYNSTYRVVSVLTVLHQDWLNGKEYKCKVSNKALPAPIEKTISKAKGQPREPQVYTLPPSREEMTKNQVSLTCDVSGFYPSDIAVEWESDGQPENNYKTTPPVLDSDGSFFLYSKLTVDKSRWEQGDVFSCSVMHEALHNHYTQKSLSLSPGK
scFv-Fc: not shown
light: DVVMTQSPLSLPVTLGQPASISCRSSQSLVHSSGNTYLHWYQQRPGQSPRLLIYKVSNRFSGVPDRFSGSGSGTDFTLKISRVEAEDVGVYFCSQSTHVPPTFGSGTKLEIKRTVAAPSVFIFPPSDEQLKSGTASVVCLLNNFYPREAKVQWKVDNALQSGNSQESVTEQDSKDSTYSLSSTLTLSKADYEKHKVYACEVTHQGLSSPVTKSFNRGEC
notes: Another XENP number than XENP35843, which has the same GPC3 Fv
Take B3: the Kd in the test with His-tagged human GPC3 [2] came to 93 nM; in test [3] it was 100 nM.

B4: XENP34368_GPC3-A_H1.1__L1.31 (bispecific antibody)
heavy: QVQLVQSGAEVKKPGASVKVSCKASGYTFTDYEMHWVRQAPGQGLEWMGALEPKTGDTAYSQKFQGRVTMTADKSISTAYMELSRLRSDDTAVYYCTRFYSYTYWGQGTLVTVSSASTKGPSVFPLAPSSKSTSGGTAALGCLVKDYFPEPVTVSWNSGALTSGVHTFPAVLQSSGLYSLSSVVTVPSSSLGTQTYICNVNHKPSDTKVDKKVEPKSCDKTHTCPPCPAPPVAGPSVFLFPPKPKDTLMISRTPEVTCVVVDVKHEDPEVKFNWYVDGVEVHNAKTKPREEEYNSTYRVVSVLTVLHQDWLNGKEYKCKVSNKALPAPIEKTISKAKGQPREPQVYTLPPSREEMTKNQVSLTCDVSGFYPSDIAVEWESDGQPENNYKTTPPVLDSDGSFFLYSKLTVDKSRWEQGDVFSCSVMHEALHNHYTQKSLSLSPGK
scFv-Fc: not shown
light: DVVMTQSPLSLPVTLGQPASISCRSSQSLVHSNGNTYLHWYQQRPGQSPRLLIYYVSNRFSGVPDRFSGSGSGTDFTLKISRVEAEDVGVYFCSQNTHVPPTFGSGTKLEIKRTVAAPSVFIFPPSDEQLKSGTASVVCLLNNFYPREAKVQWKVDNALQSGNSQESVTEQDSKDSTYSLSSTLTLSKADYEKHKVYACEVTHQGLSSPVTKSFNRGEC
notes: Another XENP number than XENP36140, which has the same GPC3 Fv; copies: 1 + 1 + 1
On to B4, for which the Kd was determined as 464 nM in the test with His-tagged human GPC3 [2] and 485 nM in test [3].

B5: XENP34364_GPC3-A_H1.1__L1.29 (bispecific antibody)
heavy: QVQLVQSGAEVKKPGASVKVSCKASGYTFTDYEMHWVRQAPGQGLEWMGALEPKTGDTAYSQKFQGRVTMTADKSISTAYMELSRLRSDDTAVYYCTRFYSYTYWGQGTLVTVSSASTKGPSVFPLAPSSKSTSGGTAALGCLVKDYFPEPVTVSWNSGALTSGVHTFPAVLQSSGLYSLSSVVTVPSSSLGTQTYICNVNHKPSDTKVDKKVEPKSCDKTHTCPPCPAPPVAGPSVFLFPPKPKDTLMISRTPEVTCVVVDVKHEDPEVKFNWYVDGVEVHNAKTKPREEEYNSTYRVVSVLTVLHQDWLNGKEYKCKVSNKALPAPIEKTISKAKGQPREPQVYTLPPSREEMTKNQVSLTCDVSGFYPSDIAVEWESDGQPENNYKTTPPVLDSDGSFFLYSKLTVDKSRWEQGDVFSCSVMHEALHNHYTQKSLSLSPGK
scFv-Fc: not shown
light: DVVMTQSPLSLPVTLGQPASISCRSSQSLVHSNGNTYLHWYQQRPGQSPRLLIYQVSNRFSGVPDRFSGSGSGTDFTLKISRVEAEDVGVYFCSQNTHVPPTFGSGTKLEIKRTVAAPSVFIFPPSDEQLKSGTASVVCLLNNFYPREAKVQWKVDNALQSGNSQESVTEQDSKDSTYSLSSTLTLSKADYEKHKVYACEVTHQGLSSPVTKSFNRGEC
notes: Another XENP number than XENP36941, which has the same GPC3 Fv
Regarding B5, the results for the Kd (with His-tagged human GPC3 [2]; in test [3]) were 70 nM and 73 nM, respectively.

B6: XENP36936 H1.1_L1.70 (bispecific antibody)
heavy: QVQLVQSGAEVKKPGASVKVSCKASGYTFTDYEMHWVRQAPGQGLEWMGALEPKTGDTAYSQKFQGRVTMTADKSISTAYMELSRLRSDDTAVYYCTRFYSYTYWGQGTLVTVSSASTKGPSVFPLAPSSKSTSGGTAALGCLVKDYFPEPVTVSWNSGALTSGVHTFPAVLQSSGLYSLSSVVTVPSSSLGTQTYICNVNHKPSDTKVDKKVEPKSCDKTHTCPPCPAPPVAGPSVFLFPPKPKDTLMISRTPEVTCVVVDVKHEDPEVKFNWYVDGVEVHNAKTKPREEEYNSTYRVVSVLTVLHQDWLNGKEYKCKVSNKALPAPIEKTISKAKGQPREPQVYTLPPSREEMTKNQVSLTCDVSGFYPSDIAVEWESDGQPENNYKTTPPVLDSDGSFFLYSKLTVDKSRWEQGDVFSCSVMHEALHNHYTQKSLSLSPGK
scFv-Fc: not shown
light: DVVMTQSPLSLPVTLGQPASISCRSSQSLVHSNKNTYLHWYQQRPGQSPRLLIYQVSNRFSGVPDRFSGSGSGTDFTLKISRVEAEDVGVYFCSQNTHVPPTFGSGTKLEIKRTVAAPSVFIFPPSDEQLKSGTASVVCLLNNFYPREAKVQWKVDNALQSGNSQESVTEQDSKDSTYSLSSTLTLSKADYEKHKVYACEVTHQGLSSPVTKSFNRGEC
notes: also called [GPC3]H1.1_L1.70; VL G29K K50Q; copies: 1 + 1 + 1
For the molecule B6, the Kd (with His-tagged human GPC3 [4]; in test [5]) was 130 nM throughout.

B7: XENP36934 H1.1_L1.68 (bispecific antibody)
heavy: QVQLVQSGAEVKKPGASVKVSCKASGYTFTDYEMHWVRQAPGQGLEWMGALEPKTGDTAYSQKFQGRVTMTADKSISTAYMELSRLRSDDTAVYYCTRFYSYTYWGQGTLVTVSSASTKGPSVFPLAPSSKSTSGGTAALGCLVKDYFPEPVTVSWNSGALTSGVHTFPAVLQSSGLYSLSSVVTVPSSSLGTQTYICNVNHKPSDTKVDKKVEPKSCDKTHTCPPCPAPPVAGPSVFLFPPKPKDTLMISRTPEVTCVVVDVKHEDPEVKFNWYVDGVEVHNAKTKPREEEYNSTYRVVSVLTVLHQDWLNGKEYKCKVSNKALPAPIEKTISKAKGQPREPQVYTLPPSREEMTKNQVSLTCDVSGFYPSDIAVEWESDGQPENNYKTTPPVLDSDGSFFLYSKLTVDKSRWEQGDVFSCSVMHEALHNHYTQKSLSLSPGK
scFv-Fc: not shown
light: DVVMTQSPLSLPVTLGQPASISCRSSQSLVHSYGNTYLHWYQQRPGQSPRLLIYQVSNRFSGVPDRFSGSGSGTDFTLKISRVEAEDVGVYFCSQNTHVPPTFGSGTKLEIKRTVAAPSVFIFPPSDEQLKSGTASVVCLLNNFYPREAKVQWKVDNALQSGNSQESVTEQDSKDSTYSLSSTLTLSKADYEKHKVYACEVTHQGLSSPVTKSFNRGEC
notes: also called [GPC3]H1.1_L1.68; VL N28Y K50Q; copies: 1 + 1 + 1
For the molecule B7, the Kd (with His-tagged human GPC3 [4]; in test [5]) was 370 nM in each case.
